Assays:
[1] = biological target: Aβ(1-42) monomer in 0.1% NH4OH (human); test: dot blot with densitometry; Aβ form dotted on nitrocellulose in serial dilution, antibody 0.2 µg/ml; higher value = weaker recognition
[2] = biological target: Aβ(1-42) globulomer (human) (UniProt P05067); test: as above
[3] = biological target: Aβ(1-40) monomer in 0.1% NH4OH (human); test: as above
Aβ(1-42) fibril (human) = Aβ(1-42) fibril (human) (UniProt P05067); test: as above
[4] = biological target: Aβ(1-40) monomer in 0.1% NaOH (human); test: as above
Aβ(1-40) monomer in 0.1% NaOH (human), sequence (peptide, as listed by the source): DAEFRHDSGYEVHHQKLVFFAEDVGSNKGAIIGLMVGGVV

[5] = biological target: Aβ(1-42) monomer in 0.1% NaOH (human); test: as above
Aβ(1-42) monomer in 0.1% NaOH (human), sequence (peptide, as listed by the source): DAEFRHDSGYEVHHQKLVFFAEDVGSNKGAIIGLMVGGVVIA

[6] = biological target: platelet factor 4 (PF-4) in Cynomolgus monkey plasma (cynomolgus monkey (Macaca fascicularis)); test: sandwich ELISA with cynomolgus plasma; AUC of the reference anti-HPF4 antibody over AUC of this antibody
platelet factor 4 (PF-4) in Cynomolgus monkey plasma (cynomolgus monkey (Macaca fascicularis)), sequence (chain, as listed by the source): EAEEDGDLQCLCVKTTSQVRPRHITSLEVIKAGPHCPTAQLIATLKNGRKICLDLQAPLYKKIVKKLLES

[7] = biological target: platelet factor 4 (PF-4) in Cynomolgus monkey plasma (cynomolgus monkey (Macaca fascicularis)); test: aligned sandwich ELISA with cynomolgus plasma; AUC of the reference anti-HPF4 antibody over AUC of this antibody
[8] = biological target: human platelet factor 4 (HPF4) in human plasma spiked with human PF4 (human) (UniProt P02776); test: aligned sandwich ELISA with HPF4-spiked human plasma; AUC of the reference anti-HPF4 antibody over AUC of this antibody
human platelet factor 4 (HPF4) in human plasma spiked with human PF4 (human), sequence (P02776 32-101): as the sequence (chain, as listed by the source) above, with V64I counted along it

[9] = biological target: human platelet factor 4 (HPF4) in human plasma spiked with human PF4 (human) (UniProt P02776); test: sandwich ELISA with HPF4-spiked human plasma; AUC of the reference anti-HPF4 antibody over AUC of this antibody

Row | Substance | dot blot relation of recognition of Aβ(20-42) globulomer to recognition of this Aβ form [1] | dot blot relation of recognition of Aβ(20-42) globulomer to recognition of this Aβ form [2] | dot blot relation of recognition of Aβ(20-42) globulomer to recognition of this Aβ form [3] | dot blot relation of recognition of Aβ(20-42) globulomer to recognition of this Aβ form (Aβ(1-42) fibril (human)) | dot blot relation of recognition of Aβ(20-42) globulomer to recognition of this Aβ form [4] | dot blot relation of recognition of Aβ(20-42) globulomer to recognition of this Aβ form [5] | Ratio HPF4/aAβ antibody (PF4 discrimination factor) [6] | Ratio HPF4/aAβ antibody (PF4 discrimination factor) [7] | Ratio HPF4/aAβ antibody (PF4 discrimination factor) [8] | Ratio HPF4/aAβ antibody (PF4 discrimination factor) [9]
1 | Anti-Aβ monoclonal antibody clone 6E10 (Covance cat. no. SIG-39320) | 10 | 0.09 | 3 | 29 | 20 | 10 | – | – | – | –
2 | Anti-HPF4 monoclonal antibody (Abcam Cat. No. ab49735) | – | – | – | – | – | – | 1 | 1 | 1 | 1
3 | Monoclonal antibody clone mIgG2a | – | – | – | – | – | – | 517 | 325 | 118 | 331
